“Also recorded” adds a separate entry of the source.
B1: C4BP(β−): plasma-purified C4BP minor isoform lacking beta chain; C4BPd3 is the CAIA group given 50 μg sc at days 3 and 5 (protein, UniProt P04003 49-597, looked up)
C4b-binding protein alpha …: NCGPPPTLSFAAPMDITLTETRFKTGTTLKYTCLPGYVRSHSTQTLTCNSDGEWVYNTFCIYKRCRHPGELRNGQVEIKTDLSFGSQIEFSCSEGFFLIGSTTSRCEVQDRGVGWSHPLPQCEIVKCKPPPDIRNGRHSGEENFYAYGFSVTYSCDPRFSLLGHASISCTVENETIGVWRPSPPTCEKITCRKPDVSHGEMVSGFGPIYNYKDTIVFKCQKGFVLRGSSVIHCDADSKWNPSPPACEPNSCINLPDIPHASWETYPRPTKEDVYVVGTVLRYRCHPGYKPTTDEPTTVICQKNLRWTPYQGCEALCCPEPKLNNGEITQHRKSRPANHCVYFYGDEISFSCHETSRFSAICQGDGTWSPRTPSCGDICNFPPKIAHGHYKQSSSYSFFKEEIIYECDKGYILVGQAKLSCSYSHWSAPAPQCKALCRKPELVNGRLSVDKDQYVEPENVTIQCDSGYGVVGPQSITCSGNRTWYPEVPKCEWETPEGCEQVLTGKRLMQCLPNPEDVKMALEVYKLSLEIEQLELQRDSARQSTLDKEL
modifications: alpha-chain-only isoform, plasma-purified

Assays:
lupus-prone NZBWF1 mice [1] = assay: Renal function (24 h proteinuria) in spontaneous SLE mouse model NZBWF1; type: in vivo; conditions: CYP 50 mg/kg IP every 10 days, up to week 37
Description: Mice, Study Design and Follow Up
NZB/NZW F1 or NZBWF1/J (Charles-River), NZB/NZW F1 (Jackson, code 100008) are a hybrid cross between NZB/B1NJ (Jackson, code 000684) Female x NZW/LacJ (Jackson, code 001058) Male. NZBWF1/J mice develop an autoimmune disease resembling human systemic lupus erythematosus. The inventors used 58 females (30-35 g/each) aged 15 weeks for the study (4-5 animals per cage). The animals were maintained under standard laboratory conditions, at 20-24° C. and 40-70% relative humidity, with 12-hour fluorescent light/12-hour dark cycle. They were feed standard diet and tap water ad libitum. […]
Dose Selection and Administration.
The selection of the C4BP(β−) dose for in vivo administration was based in previous studies employing complement-related proteins in immune-inflammatory pathologies. Blom et al. (Blom et al. 2009. Ann. Rheum. Dis., 68:136-42) used the C4BP isoform lacking β chain in experimental collagen-induced arthritis (CIA) and collagen antibody-induced arthritis (CAIA) mice to investigate the influence of complement activity in the treatment of rheumatoid arthritis. These authors administered intraperitoneally C4BP (2 mg/mouse) using a multiple dose-regimen once every two days in preventive and therapeutic experiments. Thus, in the current study, C4BP(β−) was administered both intraperitoneally (IP) and subcutaneously (SC) into NZBWF1 mice for three months (between six and nine months of age).
Alperovich et al (Alperovich et al. 2007. Lupus, 16:18-24) administered cyclophosphamide (CYP) to NZBWF1 mice at 50 mg/kg IP every 10 days.
(§1) Both IP and SC administrations for C4BP(β−), CYP and PBS (150 μl/each) were performed with a 25-gauge needle during 30 s, after rinsing the skin with 70% ethanol.
(§2) The detailed administration schedule was as follows (Table 5):
Body weight was determined twice monthly from the beginning to the end of follow-up. Mice were placed in metabolic cages to collect 24 h urine specimens before the onset of treatment and monthly thereafter. Blood was obtained from the tail vein at monthly intervals.
Renal Function Analysis: Proteinuria
24 h urinary protein was determined by pyrogallol red (Olympum Autoanalyzer AU400, Hamburg, Germany) in the Veterinary Clinical Biochemistry Laboratory from Universitat Autonoma de Barcelona.
(§3) One-way analysis of variance (ANOVA) with post hoc tests was performed to compare proteinuria throughout the follow up. Survival data were analyzed using Kaplan-Meier curves and long-rank test. P value<0.05 was considered significant. Data are expressed as mean±SEM.

NZBWF1 mice [2] = conditions: CYP 50 mg/kg IP every 10 days; Alperovich et al. 2007; cited from earlier work
lupus-prone NZBWF1 mice [3] = assay: Kaplan-Meier survival in spontaneous SLE mouse model NZBWF1; type: in vivo; conditions: CYP 50 mg/kg IP once every 10 days
Description: NZBWF1/J mice develop an autoimmune disease resembling human systemic lupus erythematosus. […] The animals were maintained under standard laboratory conditions, at 20-24° C. and 40-70% relative humidity, with 12-hour fluorescent light/12-hour dark cycle. They were feed standard diet and tap water ad libitum.
as §1, §2, §3

NZBWF1 mice [4] = type: in vivo, mouse; conditions: treatment weeks 24-36
Description: The animals were observed daily throughout the experimental period to check out any local and systemic reaction to the treatment, as well as other signs of illness and/or behavioral changes in order to obtain tolerance and toxicological information. Body weight was determined twice monthly from the beginning to the end of follow-up. Mice were placed in metabolic cages to collect 24 h urine specimens before the onset of treatment and monthly thereafter. Blood was obtained from the tail vein at monthly intervals.

[5] = test system: Balb/c male mice, CAIA model; type: in vivo, mouse
From the text: Collagen-antibody induced arthritis (CAIA) is a simple mouse model of human rheumatoid arthritis (RA) induced by the systemic administration of a cocktail of monoclonal antibodies directed against conserved auto-antigenic collagen type II epitopes, followed by a single injection of lipopolysaccharide (LPS). CAIA is a useful model to study the effector inflammatory phase of arthritis without involving the priming phase of the immune response. The murine CAIA model shares several clinical, immunological and pathological features with RA. Therefore, this model is useful to study the pathogenic mechanisms involved in RA disease as well as for testing new therapies.
Balb/c male mice aged 7-8 weeks were supplied by Envigo. The animals were acclimated during 12 days. The animals were maintained in an environmentally controlled room with ventilation, temperature (22±2° C.), relative humidity (35-65%), and cycle light/dark (12 h/12 h). The animals were housed in groups of 3-5 animals/cage. The maintenance diet was supplied by Harlan Interfauna Ibérica, S. L. (“2014 Harlan Teklad Global Diets”) and they were feed diet and water ad libitum.
Plasmatic C4BP(β−) was supplied at a concentration of 6.2 mg/ml. C4BP(β−) solutions were prepared to the desired concentration 0.33 mg/ml (for 50 μg doses) by dilution with Dulbecco's phosphate-buffered saline (DPBS) of C4BP(β−) 6.2 mg/ml stock solution.
Two reference compounds were used: dexamethasone (Sigma, Ref. D1756) and Enbrel® (etanercept) (Pfizer, Ref. 655950).
Reference compound dexamethasone was dissolved in vehicle (0.1% Tween-80+99% carboxymethyl cellulose (CMC) (0.5% w/v) in water at a concentration of 0.1 mg/ml.
Enbrel® was prepared at 6 mg/ml in DPBS by dilution of 50 mg/mL stock solution.
Experimental Procedure Day 0: Arthritis Induction
On day 0, animals for experimental group C4BPd3 were randomly selected (n=8) and identified using tail code numbers and weighted.
Each mouse was sensitized by the administration of 2 mg anti-type II collagen antibodies cocktail (ArthritoMAB™ cocktail solution, 0.2 mL, i.v., day 0) in the caudal vein.
Day 3: LPS Synchronization
Animals were intraperitoneally administered with 0.1 mL of LPS solution (0.7 mg/ml, 70 μg/animal).
50 μg of C4BP(β−) were administered subcutaneously at day 3 to treatment group C4BPd3.
50 μg of C4BP(β−) were administered subcutaneously at day 5 to treatment group C4BPd3.
Day 5: Animal Distribution
On day 5 after sensitization, the rest of the animals developing clinical signs of arthritis (n=18) were evaluated and distributed in base of CAIA+incidence. Animals were homogeneously randomized (arthritis score) into the CAIA control group, dexamethasone (1 mg/kg at days 5-11, p.o.) and Enbrel®-treated groups (30 mg/kg at days 5-11, s.c.) (n=6). Animals were identified using tail code numbers and weighted.
Group 2 was not included in the distribution because of the previous test item administration.
The arthritis score was determined using the criteria of Table 9.
Treatment: • C4BPd3 group: 50 μg of C4BP(β−) were subcutaneously injected to animals on days 3 and 5. Volume: 0.150 mL. • Reference compound treatments and CAIA control groups (days 5-11): • Enbrel®: 30 mg/kg of Enbrel® was subcutaneously administered to Enbrel group from days 5 to 11. Volume: 5 mL/kg. • Dexamethasone: 1 mg/kg dexamethasone was orally administered to dexamethasone group from days 5 to 11. Volume: 10 mL/kg. • CAIA control group: 0.150 mL of DPBS was subcutaneously administered from days 5 to 11. Arthritis Monitoring:
Body weights were registered daily from days 0-12 in C4BPd3 and from days 5-12 in CAIA control, dexamethasone and Enbrel® groups. Arthritis scores were determined by the same observer in order to avoid observer bias.
The study was finished at day 12.
Animals were anesthetized with isoflurane. Ankles and wrists thickness were measured using a dial thickness gauge. Serum samples were collected and stored at −20° C. […]

[6] = test system: human monocyte-derived DCs; assay: Immunomodulatory activity over human monocyte-derived DCs: CD83/CD86 surface expression by flow cytometry after LPS maturation; type: cell-based; conditions: FIG. 4
Description: In Vitro Functional Assessment of the Immunomodulatory Activity of Full-Length C4BP(β−) and C4BP(β−) Variants Over DCs
The inventors used for the in vitro study both C4BP(β+) (WT) and recombinant C4BP(β−) isoforms, and the above-referred mutants or variants: Mutant 1 and Mutant 2. C4BP(β+) isoforms refer to the major C4BP α7β1 plus the minor C4BP α6β1 isoforms (both in complex with ProS) purified from pooled human plasma.
RPMI 1640 was supplemented with 100 μg/ml of streptomycin, 100 IU/ml of penicillin, 2 mM L-glutamine (all from Invitrogen, Carlsbad, CA) and 10% heat-inactivated fetal bovine serum (Linus, Cultek, Spain) (complete medium), unless otherwise stated.
Peripheral blood mononuclear cells (PBMCs) were obtained from buffy coat preparations collected from healthy donors from the Blood and Tissue Bank (Barcelona, Spain) after Ficoll-Paque™ density centrifugation (GE Healthcare Bio-Sciences AB; Uppsala, Sweden). For surface phenotype determination, monocytes were plated at 1×10^6 cells/ml in 60 mm culture plates (Corning, Spain), in RPMI 1640 medium without serum, and allowed to adhere for 2 h at 37° C. in 5% CO2. The non-adherent cells were removed by washing in PBS.
Monocyte-derived DCs were generated supplementing the monocyte cultures with complete RPMI 1640 medium plus GM-CSF (800 UI/ml) and IL-4 (500 UI/ml) (both from Gentaur, Kampenhout, Belgium) at day 0 and day 3 of culture. For DC maturation, at day 5 iDCs were further stimulated for 48 h with 5 μg/ml LPS (Escherichia coli 055.B5, Sigma L2880, Copenhagen, Denmark).
Staining using the fluorescent dye 7-amino-actinomycin D (7-AAD) (BD Pharmigen) and flow cytometry analysis was employed to assess the viability status of C4BP-treated and untreated DCs.
Cell surface phenotypes were analyzed by flow cytometry using the following mAbs: FITC-conjugated anti-CD83 (HB15a) and PE-conjugated anti-CD86 (HA5.2B7) (all from Beckman-Coulter). The respective isotype controls FITC-conjugated anti-IgG2b (H2) and PE-conjugated anti-IgG2b (H2), were from the same commercial sources. After washing with PBS, cells were subsequently stained with 3 μl mAb/10^5 cells in 100 μl of FACS buffer (PBS containing 1% BSA and 0.1% sodium azide) for 20 min at room temperature. To exclude dead cells and debris, DCs were gated according to forward scatter (FSC) and side scatter (SSC) parameters. Stained cells were analyzed using a FACSCalibur (Becton Dickinson, Franklin Lakes, NJ) equipped with CellQuestPro software (Becton Dickinson).
In Vitro Functional Assessment of C4BP(β−) Immunomodulatory Activity Over DCs
The inventors used for the in vitro study both C4BP(+) and C4BP(β−) isoforms. C4BP(3+) isoforms refer to the major C4BP α7β1 plus the minor C4BP α6β1 isoforms (both in complex with ProS) purified from pooled human plasma, as previously described (Dahlbäck B. 1983. Biochem J., 209:847-56).

Molecule | development of proteinuria (lupus-prone NZBWF1 mice [1]) | histological lesions (NZBWF1 mice [2]) | serum anti-DNA antibodies (NZBWF1 mice [2]) | survival (lupus-prone NZBWF1 mice [3]) | toxicity and behavioral changes (NZBWF1 mice [4]) | protection lasting until day after the arthritis induction ([5]; 50 μg sc at days 3 and 5) [days] | inhibition of arthritis score vs. CAIA controls AUC ([5]; C4BP(β−) 50 μg sc days 3 and 5, dexamethasone 1 mg/kg po days 5-11) [%] | ankle thickness ([5]; day 12, C4BP(β−) 50 μg sc d3 and d5, dexamethasone 1 mg/kg po d5-11, Enbrel 30 mg/kg sc d5-11) [mm] | wrist thickness vs. CAIA control ([5]; day 12, regimens as Table 8) | body weight vs CAIA control group ([5]; mouse, in vivo) | arthritis scores / progression of arthritis ([5]; regimens as Table 8, vs CAIA control group) | semi-mature, anti-inflammatory phenotype conferred to LPS-matured MoDCs (immunomodulatory activity) ([6]; MoDCs pre-incubated with 5 μg/ml protein, LPS challenge) | CD83 and CD86 surface marker expression ([6]; human MoDCs, 5 μg/ml C4BP isoform, LPS 5 μg/ml)
O=P1(N(CCCl)CCCl)NCCCO1 (centres unmarked) [CYP, Cyclophosphamide, reference compound] | prevented the development of proteinuria | arrested and reversed almost all histological lesions | appropriately controlled | survived throughout the period of observation; also recorded: increased survival | neither toxicity nor behavioral changes were observed |  |  |  |  |  |  |  | 
B1 |  |  |  |  | neither toxicity nor behavioral changes were observed | ≥ 12 | 47 | 2.74±0.08 | No changes | No remarkable differences | significantly ameliorated the progression of arthritis | able to confer an analogous semi-mature, anti-inflammatory phenotype | restrain similarly CD83 and CD86 surface marker expression

Source: patent US12006343B2, “C4BP-based compounds for treating immunological diseases” (FUNDACIO INSTITUT D'INVESTIGACIO BIOMEDICA DE BELLVITGE …, priority 2017, dated 2024)
